B1: Protein BZR1 homolog 1 (Oryza sativa subsp. japonica (Rice)), Q7XI96 (parent)
chain: MTSGAAAAGRTPTWKERENNKRRERRRRAIAAKIFTGLRALGNYNLPKHCDNNEVLKALCREAGWVVEDDGTTYRKGCKPPPSSAGGASVGMSPCSSTQLLSAPSSSFPSPVPSYHASPASSSFPSPSRIDNPSASCLLPFLRGLPNLPPLRVSSSAPVTPPLSSPTASRPPKIRKPDWDVDPFRHPFFAVSAPASPTRGRRLEHPDTIPECDESDVSTVDSGRWISFQMATTAPTSPTYNLVNPGASTSNSMEIEGTAGRGGAEFEFDKGRVTPWEGERIHEVAAEELELTLGVGAK
partner: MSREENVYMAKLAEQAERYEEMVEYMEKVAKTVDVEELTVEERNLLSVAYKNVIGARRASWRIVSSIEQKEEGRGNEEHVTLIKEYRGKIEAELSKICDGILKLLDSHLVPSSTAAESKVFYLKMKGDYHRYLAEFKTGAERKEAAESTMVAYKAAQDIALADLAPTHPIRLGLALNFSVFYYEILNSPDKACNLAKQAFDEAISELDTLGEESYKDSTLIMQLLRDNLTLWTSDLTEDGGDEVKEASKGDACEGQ

Variants of: B1
Settings: with 14333_orysj GF14C

| Variant | effect of a mutation on the interaction |
| --- | --- |
| S156G | disrupting interaction |

— IntAct's records for PubMed 17699623
